T1: monkey C5-mmh (monkey, UniProt P01031 19-1676 (human entry), limits assumed)
T1 construct: Recombinant monkey C5 with a C-terminal myc-myc-hexahistidine tag
T1 chain: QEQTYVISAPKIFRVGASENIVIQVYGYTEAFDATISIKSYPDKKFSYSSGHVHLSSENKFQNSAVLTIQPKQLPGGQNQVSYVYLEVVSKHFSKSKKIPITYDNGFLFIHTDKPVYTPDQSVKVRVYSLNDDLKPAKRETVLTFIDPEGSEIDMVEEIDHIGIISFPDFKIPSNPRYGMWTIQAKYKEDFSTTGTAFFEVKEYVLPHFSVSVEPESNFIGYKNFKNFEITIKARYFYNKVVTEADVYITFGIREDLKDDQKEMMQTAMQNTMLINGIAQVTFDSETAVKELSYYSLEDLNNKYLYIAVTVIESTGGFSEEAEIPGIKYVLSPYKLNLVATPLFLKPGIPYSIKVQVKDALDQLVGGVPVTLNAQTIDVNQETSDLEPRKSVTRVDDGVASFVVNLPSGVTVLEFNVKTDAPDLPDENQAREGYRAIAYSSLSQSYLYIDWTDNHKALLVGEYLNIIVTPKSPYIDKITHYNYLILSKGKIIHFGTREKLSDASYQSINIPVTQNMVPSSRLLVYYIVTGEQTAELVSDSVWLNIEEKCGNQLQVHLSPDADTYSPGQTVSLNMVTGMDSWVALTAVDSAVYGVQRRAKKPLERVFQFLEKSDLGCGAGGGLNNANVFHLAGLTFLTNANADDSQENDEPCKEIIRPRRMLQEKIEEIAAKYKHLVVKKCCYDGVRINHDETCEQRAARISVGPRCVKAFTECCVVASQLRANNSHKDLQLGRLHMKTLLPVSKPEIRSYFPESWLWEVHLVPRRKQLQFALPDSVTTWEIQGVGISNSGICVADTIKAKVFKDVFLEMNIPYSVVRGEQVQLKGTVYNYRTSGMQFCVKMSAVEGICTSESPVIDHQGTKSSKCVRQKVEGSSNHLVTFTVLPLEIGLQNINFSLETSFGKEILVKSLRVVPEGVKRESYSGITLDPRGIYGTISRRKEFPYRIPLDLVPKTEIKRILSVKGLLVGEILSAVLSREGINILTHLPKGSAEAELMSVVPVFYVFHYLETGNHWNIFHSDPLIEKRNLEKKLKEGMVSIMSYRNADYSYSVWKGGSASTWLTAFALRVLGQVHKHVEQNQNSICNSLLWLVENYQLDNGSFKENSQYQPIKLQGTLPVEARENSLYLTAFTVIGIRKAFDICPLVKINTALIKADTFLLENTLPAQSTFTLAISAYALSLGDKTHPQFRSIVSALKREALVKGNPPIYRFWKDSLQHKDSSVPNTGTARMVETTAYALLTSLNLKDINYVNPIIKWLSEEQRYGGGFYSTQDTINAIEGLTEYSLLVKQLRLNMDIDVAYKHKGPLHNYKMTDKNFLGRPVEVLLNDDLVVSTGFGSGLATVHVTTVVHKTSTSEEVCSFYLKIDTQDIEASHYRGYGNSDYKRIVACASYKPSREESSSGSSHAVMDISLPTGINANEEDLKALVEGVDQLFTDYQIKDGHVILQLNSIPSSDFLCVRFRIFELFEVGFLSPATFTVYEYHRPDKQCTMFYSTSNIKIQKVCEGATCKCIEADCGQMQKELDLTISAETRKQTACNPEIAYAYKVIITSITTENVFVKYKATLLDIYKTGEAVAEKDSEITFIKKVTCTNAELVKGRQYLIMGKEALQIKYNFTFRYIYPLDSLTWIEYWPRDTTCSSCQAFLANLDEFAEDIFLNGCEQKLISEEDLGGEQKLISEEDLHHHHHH

B1: H4H12171P (antibody, human IgG4, V domains shown)
VH: EVQLVESGGGVVRPGGSLRLSCAASGFTFDEYGMTWVRQVPGKGLEWVSGITWNGGFTDYTDSVKGRFTSSRDNAKNSLYLQMNSLRAEDTALYYCARDGYSSSWGAYDIWGQGTMVTVSS
VL: DIQMTQSPSSLSASVGDRVTITCRASQSISTYLNWYQQKPGKAPKLLIYAASSLQSGVPLRFSGSGSGTDFTLTISSLQPEDFASYFCQQSYSTPYTFGQGTKLEIK
notes: Human IgG4 Fc with S108P hinge mutation (H4H)
B2: H4H11683N (antibody, V domains shown)
VH: QVQLVESGGGVVQPGRSLRLSCVASGFTFSSYGIHWVRQAPGKGLEWVAVIWDDGNNINYSDSVKGRFIISRDNSRKTVYLQMNSLRGEDTAVYYCARDAPIAPVPDYWGQGTLVTVSS
VL: DIQMTQSPSTLSASVGDRVTITCRASQSISSWLAWYQQKPGKAPKLLIYKASSLDTGVPSRFSGSGSGTEFTLTISSLQPDDFATYYCQQYNTYSYTFGLGTKLEIK
notes: also called H2M11683N
B3: H4H12163P (antibody, human IgG4, V domains shown)
VH: EVQLVESGGDLVQPGGSLRLSCAASGFTFSSYAMNWVRQGPGKGLEWVSAISGRGDSTYYADSVKGRLTISRDNSKNTLYLQMNSLRAEDTAVYYCVKEGEQLVYWYFDLWGRGTLVTVSS
VL: DIQMTQSPSSLSASVGDRVTITCRASQTISNFLHWYQQKPGKAPKLLIYAASSLQSGVPSRFSGSGSGTDFTLTISSLQPEDFSTYFCQQSYTTPLTFGGGTKVEIK
notes: as for B1

Molecular target: T2, human C5 R885H-mmh (human, UniProt P01031 19-1676)
T2 construct: also called human C5 variant R885H
Assay: SPR, mAb captured via anti-hFc, 25C
Method: (§1) Equilibrium dissociation constants (KD values) for C5 binding to purified anti-C5 antibodies were determined using a real-time surface plasmon resonance biosensor assay on a Biacore T200 instrument. The Biacore sensor surface was derivatized by amine coupling with a monoclonal mouse anti-human Fc antibody (GE Healthcare, # BR-1008-39) to capture anti-C5 antibodies expressed with human Fc constant regions. Biacore binding studies were conducted in HBST running buffer (0.01M HEPES pH 7.4, 0.15M NaCl, 3 mM EDTA, 0.05% v/v Surfactant P20).
(§2) Human C5 was obtained from a commercial source (EMD). Other C5 reagents were expressed with a C-terminal myc-myc-hexahistidine tag (subsequently referred to as C5-mmh). […] Association of all the C5 reagents to each of the captured monoclonal antibodies was monitored for 3 minutes and their dissociation in HBST running buffer was monitored for 8 minutes. All the binding kinetics experiments were performed at either 25° C. or 37° C. Kinetic association (kₐ) and dissociation (kd) rate constants were determined by fitting the real-time sensorgrams to a 1:1 binding model using Scrubber 2.0c curve fitting software. Binding dissociation equilibrium constants (KD) and dissociative half-lives (t %) were calculated from the kinetic rate constants as: KD (M)=kd/kₐ and t_{1/2} (min)=In2/(60×kd)

| Binder | 100 nM Human C5 R885H-mmh Bound (RU) | Kd [nM] | koff [s⁻¹] | kon [M⁻¹ s⁻¹] | t1/2 [min] |
| --- | --- | --- | --- | --- | --- |
| B1 | 51 | 0.216 | 0.000142 | 659000 | 81 |
| B2 | 118 | 0.468 | 0.000246 | 526000 | 47 |
| B3 | 214 | 0.646 | 0.000434 | 672000 | 27 |

Molecular target: T3, human C5 R885C-mmh (human, UniProt P01031 19-1676)
T3 construct: also called human C5 variant R885C
Assay: SPR, mAb captured via anti-hFc, 25C
Method: as §1, §2

| Binder | 100 nM Human C5 R885C-mmh Bound (RU) | Kd [nM] | koff [s⁻¹] | kon [M⁻¹ s⁻¹] | t1/2 [min] |
| --- | --- | --- | --- | --- | --- |
| B1 | 51 | 0.366 | 0.000139 | 379000 | 83 |
| B2 | 116 | 0.479 | 0.000239 | 499000 | 48 |
| B3 | 211 | 0.858 | 0.000432 | 504000 | 27 |

Molecular target: T4, human C5 (human, UniProt P01031 19-1676)
T4 construct: Bought human C5 (EMD #204888, said elsewhere to be purified from plasma); also called hC5; complement component 5
Assay: SPR, mAb captured via anti-hFc, dissociation at pH7.4 vs pH6.0, 25C
Method: Effect of pH on the rate of dissociation of recombinant human C5 bound to purified anti-C5 monoclonal antibodies was determined using a real-time surface plasmon resonance biosensor using a Biacore T200 instrument. The Biacore sensor surface was first derivatized by amine coupling with a monoclonal mouse anti-human Fc antibody (GE, # BR-1008-39) to capture anti-C5 monoclonal antibodies expressed with human IgG4 Fc. All Biacore binding studies were performed using two running buffers PBS-T, pH7.4 (0.01M Na₂HPO₄/NaH₂PO₄, 0.15M NaCl, 0.05% v/v Tween-20, adjusted to pH7.4) and PBS-T, pH6.0 (0.01M Na₂HPO₄/NaH₂PO₄, 0.15M NaCl, 0.05% v/v Tween-20, adjusted to pH6.0). […] Binding dissociative half-lives (t %) were calculated from kd as: […]

| Binder | t1/2 Ratio pH7.4/pH6.0 |
| --- | --- |
| B1 | 0.6 |
| B2 | 2 |
| B3 | 1.2 |

Molecular target: T2, human C5 R885H-mmh
Assay: SPR, mAb captured via anti-hFc, 37C
Method in brief: (§3)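 Antibodies captured on anti-human Fc surface in HBST (HEPES pH 7.4, 3 mM EDTA); C5 reagents (commercial human C5 or myc-myc-His-tagged variants) associated 3 min, dissociated 8 min, at 25 °C or 37 °C. Sensorgrams fitted 1:1; KD = kd/ka, t½ = ln2/(60×kd).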

| Binder | 100 nM Human C5 R885H-mmh Bound (RU) | Kd [nM] | koff [s⁻¹] | kon [M⁻¹ s⁻¹] | t1/2 [min] |
| --- | --- | --- | --- | --- | --- |
| B1 | 80 | 1.63 | 0.000963 | 592000 | 12 |
| B2 | 81 | 2.69 | 0.00147 | 548000 | 8 |
| B3 | 85 | 4 | 0.0029 | 724000 | 4 |

Molecular target: T3, human C5 R885C-mmh
Assay: SPR, mAb captured via anti-hFc, 37C
Method in brief: as §3

| Binder | 100 nM Human C5 R885C-mmh Bound (RU) | Kd [nM] | koff [s⁻¹] | kon [M⁻¹ s⁻¹] | t1/2 [min] |
| --- | --- | --- | --- | --- | --- |
| B1 | 78 | 2.01 | 0.000957 | 477000 | 12 |
| B2 | 78 | 3.25 | 0.00143 | 438000 | 8 |
| B3 | 83 | 4.97 | 0.00281 | 566000 | 4 |

Molecular target: T1, monkey C5-mmh
Assay: SPR, mAb captured via anti-hFc, 37C
Method in brief: as §3

| Binder | 100 nM monkey C5-mmh Bound (RU) | Kd [nM] | koff [s⁻¹] | kon [M⁻¹ s⁻¹] | t1/2 [min] |
| --- | --- | --- | --- | --- | --- |
| B1 | 78 | 1.85 | 0.00103 | 556000 | 11 |
| B2 | 303 | 2.16 | 0.00115 | 535000 | 10 |
| B3 | 129 | 3.2 | 0.00125 | 390000 | 9 |

From patent publication US20170355757A1 (Regeneron, published 2017)
